Here are results for 6 sequences from the supplement of paper PMC5998384.

Data set [1] has as its system HeLa Kyoto. In words: solubility change mitosis vs G1/S (difference of NP-40 vs SDS log2 ratios) (log2 ratio difference); higher = more soluble in mitosis.
The subject of data set [2] is HeLa Kyoto. In words: melting temperature (median over replicates), in situ; higher = more thermally stable.
Data set [3] concerns HeLa Kyoto. The data set is described as follows: solubility in G1/S (NP-40 vs SDS abundance) (log2 ratio); higher = more soluble. The settings on record: cell cycle stage: G1/S.
Data set [4] relates to HeLa Kyoto. The data set is described as follows: thermal stability score vs G1/S (z-score of summed log2 fold changes over temperatures); higher = more thermally stable than in G1/S.
Setting [5] is: cell cycle stage: early G1 (4.5 h after nocodazole release).
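For melting temperature (median over replicates), in situ in this document: HeLa Kyoto cells synchronized by double thymidine or nocodazole block, proteins quantified by TMT10plex mass spectrometry, three independent biological replicates.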
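For solubility change mitosis vs G1/S (difference of NP-40 vs SDS log2 ratios) in this document: synchronized HeLa Kyoto cells (double thymidine block for G1/S, nocodazole release for mitosis), protein amounts in NP-40 versus SDS lysates quantified by mass spectrometry, three biological replicates.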
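For solubility in G1/S (NP-40 vs SDS abundance) in this document: HeLa Kyoto cells arrested at G1/S by double thymidine block, proteins quantified by TMT10plex mass spectrometry in mild NP-40 versus SDS extracts, three biological replicates.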
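For thermal stability score vs G1/S (z-score of summed log2 fold changes over temperatures) in this document: synchronized HeLa Kyoto cells, proteins quantified by TMT10plex mass spectrometry, three biological replicates, mitosis taken 0.5 h after nocodazole release, G1/S directly after double thymidine block.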

“MGVQGFQDYIEKHCPSAVVPVELQKLARGSLVGGGRQRPPQTPLRLLVDADNCLHRLYGGFYTDWVSGGQWNHMLGYLAALAKACFGGNIELFVFFNGALEKARLHEWVKRQGNERQTAQQIVSHVQNKGTPPPKVWFLPPVCMAHCIRLALIRFHVKVAQSIEDHHQEVIGFCRENGFHGLVAYDSDYALCNIPYYFSAHALKLSRNGKSLTTSQYLMHEVAKQLDLNPNRFPIFAALLGNHILPDEDLASFHWSLLGPEHPLASLKVRAHQLVLPPCDVVIKAVADYVRNIQDTSDLDAIAKDVFQHSQSRTDDKVIRFKRAIGYYSATSKPMSFHPPHYLAARPGPFGMPGMVPPHVPPQMLNIPQTSLQAKPVAPQVPSPGGAPGQGPYPYSLSEPAPLTLDTSGKNLTEQNSYSNIPHEGKHTPLYERSSPINPAQSGSPNHVDSAYFPGSSTSSSSDNDEGSGGATNHISGNKIGWEKTGSHSEPQARGDPGDQTKAEGSSTASSGSQLAEGKGSQMGTVQPIPCLLSMPTRNHMDITTPPLPPVAPEVLRVAEHRHKKGLMYPYIFHVLTKGEIKIAVSIEDEANKDLPPAALLYRPVRQYVYGVLFSLAESRKKTERLAFRKNRLPPEFSPVIIKEWAAYKGKSPQTPELVEALAFREWTCPNLKRLWLGKAVEDKNRRMRAFLACMRSDTPAMLNPANVPTHLMVLCCVLRYMVQWPGARILRRQELDAFLAQALSPKLYEPDQLQELKIENLDPRGIQLSALFMSGVDMALFANDACGQPIPWEHCCPWMYFDGKLFQSKLLKASREKTPLIDLCDGQADQAAKVEKMRQSVLEGLSFSRQSHTLPFPPPPALPFYPASAYPRHFGPVPPSQGRGRGFAGVCGFGGPYGETVATGPYRAFRVAAASGHCGAFSGSDSSRTSKSQGGVQPIPSQGGKLEIAGTVVGHWAGSRRGRGGRGPFPLQVVSVGGPARGRPRGVISTPVIRTFGRGGRYYGRGYKNQAAIQGRPPYAASAEEVAKELKSKSGESKSSAMSSDGSLAENGVMAEEKPAPQMNGSTGDARAPSHSESALNNDSKTCNTNPHLNALSTDSACRREAALEAAVLNKEE [FAM120A]”: the “solubility change mitosis (log2)” value in the data set with HeLa Kyoto [1] is -0.0663. Further, the melting temperature in the data set with HeLa Kyoto [2] (cell cycle stage: G1/S) turned out to be 50.9 °C; in the data set on HeLa Kyoto [2] (cell cycle stage: mitosis), 50.6 °C. In addition, the “solubility in G1/S (log2)” value in the data set with HeLa Kyoto [3] was -0.143. The thermal stability score in the data set with HeLa Kyoto [4] (setting [5]) was -0.707; with HeLa Kyoto [4] (cell cycle stage: mitosis) it was -2.24.
As to “MHPAGLAAAAAGTPRLRKWPSKRRIPVSQPGMADPHQLFDDTSSAQSRGYGAQRAPGGLSYPAASPTPHAAFLADPVSNMAMAYGSSLAAQGKELVDKNIDRFIPITKLKYYFAVDTMYVGRKLGLLFFPYLHQDWEVQYQQDTPVAPRFDVNAPDLYIPAMAFITYVLVAGLALGTQDRFSPDLLGLQASSALAWLTLEVLAILLSLYLVTVNTDLTTIDLVAFLGYKYVGMIGGVLMGLLFGKIGYYLVLGWCCVAIFVFMIRTLRLKILADAAAEGVPVRGARNQLRMYLTMAVAAAQPMLMYWLTFHLVR [YIF1B]”, the “solubility change mitosis (log2)” value with HeLa Kyoto [1] was -0.373. For the same sequence, the melting temperature in the data set with HeLa Kyoto [2] (cell cycle stage: G1/S) stood at 53.5 °C; in the data set on HeLa Kyoto [2] (cell cycle stage: mitosis) it was 54.8 °C. The “solubility in G1/S (log2)” value in the data set with HeLa Kyoto [3] is 0.0319. Also, the values for the thermal stability score in the data set with HeLa Kyoto [4] (setting [5]) and with HeLa Kyoto [4] (cell cycle stage: mitosis) were -0.959 and -1.51, respectively.
On to “MHQQKRQPELVEGNLPVFVFPTELIFYADDQSTHKQVLTLYNPYEFALKFKVLCTTPNKYVVVDAAGAVKPQCCVDIVIRHRDVRSCHYGVIDKFRLQVSEQSQRKALGRKEVVATLLPSAKEQQKEEEEKRLKEHLTESLFFEQSFQPENRAVSSGPSLLTVFLGVVCIAALMLPTLGDVESLVPLYLHLSVNQKLVAAYILGLITMAILRT [MOSPD1]”, for which the “solubility change mitosis (log2)” value in the data set on HeLa Kyoto [1] was 0.352. The melting temperature in the data set with HeLa Kyoto [2] (cell cycle stage: G1/S) stood at 54.2 °C; with HeLa Kyoto [2] (cell cycle stage: mitosis), 54.9 °C. Moreover, the “solubility in G1/S (log2)” value in the data set on HeLa Kyoto [3] was found to be 0.0717. The thermal stability score was -1.29 in the data set with HeLa Kyoto [4] (setting [5]) and -2.15 with HeLa Kyoto [4] (cell cycle stage: mitosis).
In the case of “MHSEAEESKEVATDVFNSKNLAVQAQKKILGKMVSKSIATTLIDDTSSEVLDELYRVTREYTQNKKEAEKIIKNLIKTVIKLAILYRNNQFNQDELALMEKFKKKVHQLAMTVVSFHQVDYTFDRNVLSRLLNECREMLHQIIQRHLTAKSHGRVNNVFDHFSDCEFLAALYNPFGNFKPHLQKLCDGINKMLDEENI [TNFAIP8]”, in the data set with HeLa Kyoto [1], the “solubility change mitosis (log2)” value is -0.272. In addition, the melting temperature in the data set on HeLa Kyoto [2] (cell cycle stage: G1/S) turned out to be 51.9 °C; in the data set with HeLa Kyoto [2] (cell cycle stage: mitosis) it was 51.7 °C. The “solubility in G1/S (log2)” value with HeLa Kyoto [3] was 0.339. In addition, the thermal stability score with HeLa Kyoto [4] (setting [5]) is 0.429; in the data set with HeLa Kyoto [4] (cell cycle stage: mitosis), -0.108.
On to “MHVIKRDGRQERVMFDKITSRIQKLCYGLNMDFVDPAQITMKVIQGLYSGVTTVELDTLAAETAATLTTKHPDYAILAARIAVSNLHKETKKVFSDVMEDLYNYINPHNGKHSPMVAKSTLDIVLANKDRLNSAIIYDRDFSYNYFGFKTLERSYLLKINGKVAERPQHMLMRVSVGIHKEDIDAAIETYNLLSERWFTHASPTLFNAGTNRPQLSSCFLLSMKDDSIEGIYDTLKQCALISKSAGGIGVAVSCIRATGSYIAGTNGNSNGLVPMLRVYNNTARYVDQGGNKRPGAFAIYLEPWHLDIFEFLDLKKNTGKEEQRARDLFFALWIPDLFMKRVETNQDWSLMCPNECPGLDEVWGEEFEKLYASYEKQGRVRKVVKAQQLWYAIIESQTETGTPYMLYKDSCNRKSNQQNLGTIKCSNLCTEIVEYTSKDEVAVCNLASLALNMYVTSEHTYDFKKLAEVTKVVVRNLNKIIDINYYPVPEACLSNKRHRPIGIGVQGLADAFILMRYPFESAEAQLLNKQIFETIYYGALEASCDLAKEQGPYETYEGSPVSKGILQYDMWNVTPTDLWDWKVLKEKIAKYGIRNSLLIAPMPTASTAQILGNNESIEPYTSNIYTRRVLSGEFQIVNPHLLKDLTERGLWHEEMKNQIIACNGSIQSIPEIPDDLKQLYKTVWEISQKTVLKMAAERGAFIDQSQSLNIHIAEPNYGKLTSMHFYGWKQGLKTGMYYLRTRPAANPIQFTLNKEKLKDKEKVSKEEEEKERNTAAMVCSLENRDECLMCGS [RRM1]”, for which, in the data set with HeLa Kyoto [1], the “solubility change mitosis (log2)” value is -0.154. Also, the melting temperature with HeLa Kyoto [2] (cell cycle stage: G1/S) turned out to be 56.1 °C; with HeLa Kyoto [2] (cell cycle stage: mitosis) it was 53.8 °C. Besides, the “solubility in G1/S (log2)” value with HeLa Kyoto [3] is -0.148. The thermal stability score in the data set with HeLa Kyoto [4] (setting [5]) is -8.92; in the data set with HeLa Kyoto [4] (cell cycle stage: mitosis), -8.47.
On to “MIALFNKLLDWFKALFWKEEMELTLVGLQYSGKTTFVNVIASGQFNEDMIPTVGFNMRKITKGNVTIKLWDIGGQPRFRSMWERYCRGVSAIVYMVDAADQEKIEASKNELHNLLDKPQLQGIPVLVLGNKRDLPGALDEKELIEKMNLSAIQDREICCYSISCKEKDNIDITLQWLIQHSKSRRS [ARL8A]”, for which, in the data set on HeLa Kyoto [1], the “solubility change mitosis (log2)” value was -0.116. In addition, the melting temperature in the data set with HeLa Kyoto [2] (cell cycle stage: G1/S) came out at 54.3 °C; in the data set on HeLa Kyoto [2] (cell cycle stage: mitosis), 54.4 °C. Moreover, the “solubility in G1/S (log2)” value with HeLa Kyoto [3] is -0.0955. The thermal stability score in the data set with HeLa Kyoto [4] (setting [5]) is -1.51; in the data set on HeLa Kyoto [4] (cell cycle stage: mitosis), -1.71.
